Assay results: article PMC12416549 (2024)
Positions count from the first letter of the chain named. In names and notes the source's numbering stands.

T1: TNFR1 (Homo sapiens, UniProt P19438)
T1 chain: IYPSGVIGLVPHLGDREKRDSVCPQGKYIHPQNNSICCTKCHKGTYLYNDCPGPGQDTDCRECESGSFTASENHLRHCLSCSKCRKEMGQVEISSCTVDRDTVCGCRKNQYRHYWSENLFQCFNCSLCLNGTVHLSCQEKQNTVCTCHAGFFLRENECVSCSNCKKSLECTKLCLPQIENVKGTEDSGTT

B1: E86A (designed binder)
chain: SMEEEVEKAAKEYEKKKKEAIEKHLEKLKAKDKEAAERFLKELEEAAKEYAKDEAKTMSEEEAKRRAKKYKEKVLLSELSEEEQKAIKEAEEKLVRTILKYVEEAAK
B2: E82S (designed binder)
chain: B1 chain with E82S, A86E
B3: D53C (designed binder)
chain: B1 chain with D53C, A86E
B4: E14F (designed binder)
chain: B1 chain with E14F, A86E
B5: K107N (designed binder)
chain: B1 chain with A86E, K107N
B6: S80F (designed binder)
chain: B1 chain with S80F, A86E
B7: E19H (designed binder)
chain: B1 chain with E19H, A86E
B8: M2W (designed binder)
chain: B1 chain with M2W, A86E
B9: V6M (designed binder)
chain: B1 chain with V6M, A86E
B10: E92P (designed binder)
chain: B1 chain with A86E, E92P
B11: L79D (designed binder)
chain: B1 chain with L79D, A86E
B12: K18Y (designed binder)
chain: B1 chain with K18Y, A86E
B13: E86D (designed binder)
chain: B1 chain with A86D
B14: L43G (designed binder)
chain: B1 chain with L43G, A86E
B15: E42T (designed binder)
chain: B1 chain with E42T, A86E
B16: E61L (designed binder)
chain: B1 chain with E61L, A86E
B17: A47R (designed binder)
chain: B1 chain with A47R, A86E
B18: E5Y (designed binder)
chain: B1 chain with E5Y, A86E
B19: K100G (designed binder)
chain: B1 chain with A86E, K100G
B20: E92N (designed binder)
chain: B1 chain with A86E, E92N
B21: E44W (designed binder)
chain: B1 chain with E44W, A86E
B22: I21C (designed binder)
chain: B1 chain with I21C, A86E
B23: I98A (designed binder)
chain: B1 chain with A86E, I98A
B24: A30H (designed binder)
chain: B1 chain with A30H, A86E

Molecular target: T1, TNFR1
Experiment: yeast display SC50

| apparent Kd (screen) [nM] | Binder |
| --- | --- |
| 0.653 | B1 |
| 0.49 | B2 |
| 2.73 | B3 |
| 29.5 | B4 |
| 1.54 | B5 |
| 2.73 | B6 |
| 0.49 | B7 |
| 0.446 | B8 |
| 2.73 | B9 |
| 7.78 | B10 |
| 16.7 | B11 |
| 1.05 | B12 |
| 0.49 | B13 |
| 1.4 | B14 |
| 9.41 | B15 |
| 1.69 | B16 |
| 0.49 | B17 |
| 1.54 | B18 |
| 0.277 | B19 |
| 1.05 | B20 |
| 3.3 | B21 |
| 0.49 | B22 |
| 1.69 | B23 |
| 0.869 | B24 |
